Experimental data: the supplement of paper PMC7877785
± gives the uncertainty stated by the source.

Assay: self-splicing fitness, log relative to wild type (ln ratio); higher = more splicing; Tetrahymena group I intron in knt gene, E. coli kanamycin selection, DiMSum; sequences stand for … in CUCUCU…GGAGGGAAAAGUUAUCAGGCAUGCACCUGGUAGCUAGUCUUUAAACCAAUAGAUUGCAUCGGUUUAAAAGGCAAGACCGUCAAAUUGCGGGAAAGGGGUCAACAGCCGUUCAGUACCAAGUCUCAGGGGAAACUUUGAGAUGGCCUUGCAAAGGGUAUGGUAAUAAGCUGACGGACAUGGUCCUAACCACGCAGCCAAGUCCUAAGUCAACAGAUCUUCUGUUGAUAUGGAUGCAGUUCACAGACUAAAUGUCGGUCGGGGAAGAUGUAUUCUUCUCAUAAGAUAUAGUCGGACCUCUCCUUAAUGGGAGCUAGCGGAUGAAGUGAUGCAACACUGGAGCCGCUGGGAACUAAUUUGUAUGCGAAAGUAUAUUGAUUAGUUUUGGAGUACUCGUGGUCG
Method in brief: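 Library with all eight P1ex-region intron nucleotides randomised, intron inside the knt kanamycin-resistance gene on pET-22b(+), in E. coli BL21(DE3). Cells grew overnight at 37°C or 30°C on LB agar with or without 25 μg/mL kanamycin (plus 100 μg/mL carbenicillin, 50 μM IPTG, 0.2% rhamnose), in six replicate transformations. Pooled colonies were amplicon-sequenced on Illumina HiSeq 2500. DiMSum fitness is the error-weighted combination of wild-type-normalised replicate fold changes, kanamycin versus none.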

Sequence | self-splicing fitness (ln) (30 °C) | self-splicing fitness (ln) (37 °C)
UCCUAGCAAUAUUACGUAGG | -3.58 ± 0.19 | -2.21 ± 0.26
GUAGAGCAAUAUUACGUGGU | -3.09 ± 0.28 | -3.52 ± 0.3
AGAGAGCAAUAUUACGACUA | -2.42 ± 0.44 | 
CGAGAGCAAUAUUACGGUUG | -2.88 ± 0.14 | -1.21 ± 0.14
GCGGAGCAAUAUUACGUAGG | -4.18 ± 0.34 | -0.489 ± 0.15
ACUUAGCAAUAUUACGUCUC | -2.31 ± 0.25 | -3.34 ± 0.32
AGGGAGCAAUAUUACGGUUU | -3.83 ± 0.24 | -2.39 ± 0.26
CUAGAGCAAUAUUACGUUAC | -2.88 ± 0.27 | 
GAUAAGCAAUAUUACGUAAA | -2.24 ± 0.17 | -1.19 ± 0.17
CACGAGCAAUAUUACGUACA | -3.75 ± 0.37 | -2.49 ± 0.24
GACUAGCAAUAUUACGGAUC | -0.87 ± 0.096 | -0.304 ± 0.14
UUUGAGCAAUAUUACGGUAG | -2.82 ± 0.39 | -2.41 ± 0.36
UAGUAGCAAUAUUACGUUUC | -1.16 ± 0.38 | -1.5 ± 0.41
ACUGAGCAAUAUUACGACCA | -2.57 ± 0.39 | -1.1 ± 0.28
GGGGAGCAAUAUUACGUGCG | -1.61 ± 0.14 | -1.54 ± 0.27
GAAAAGCAAUAUUACGAGUG | -1.08 ± 0.073 | -0.813 ± 0.094
ACGGAGCAAUAUUACGGCGG | -1.4 ± 0.12 | -0.413 ± 0.13
AGUCAGCAAUAUUACGAUGA | -0.22 ± 0.057 | -0.0826 ± 0.071
CACUAGCAAUAUUACGAAAG | -1.23 ± 0.062 | -0.136 ± 0.084
CUCUAGCAAUAUUACGGUGA | -3.56 ± 0.21 | -1.8 ± 0.2
UACUAGCAAUAUUACGAAAC |  | -2.1 ± 0.32
GACAAGCAAUAUUACGAUGG | -2.52 ± 0.1 | -2.14 ± 0.16
AUCAAGCAAUAUUACGGGAU | -2.33 ± 0.097 | -2.12 ± 0.13
GGUAAGCAAUAUUACGGUUC | -0.52 ± 0.16 | -0.621 ± 0.17
UACCAGCAAUAUUACGGCGU | -0.619 ± 0.055 | -0.341 ± 0.072
UGCGAGCAAUAUUACGGGUC | -4.21 ± 0.27 | -2.72 ± 0.3

Sequence | self-splicing fitness (ln) (30 °C) | self-splicing fitness (ln) (37 °C)
AGCAAGCAAUAUUACGGGAU | -2.79 ± 0.098 | -1.15 ± 0.081
CCGAAGCAAUAUUACGAUCU | -3.36 ± 0.34 | -2.85 ± 0.29
GAUAAGCAAUAUUACGAAGG | -2.27 ± 0.15 | -1.86 ± 0.2
ACCGAGCAAUAUUACGGAAA | -2.92 ± 0.12 | -2.5 ± 0.12
CACAAGCAAUAUUACGGGUA | -1.26 ± 0.07 | -0.601 ± 0.076
GUUGAGCAAUAUUACGUGGA | -1.2 ± 0.37 | -2.45 ± 0.34
GAUGAGCAAUAUUACGUCUG | -2.66 ± 0.19 | -2.96 ± 0.28
ACCGAGCAAUAUUACGGGUC | -4.23 ± 0.14 | -3.06 ± 0.14
UCUAAGCAAUAUUACGCGAC |  | -2.84 ± 0.36
AGUUAGCAAUAUUACGCUCU | -1.37 ± 0.45 | 
UAAAAGCAAUAUUACGUUGC | -3.72 ± 0.27 | -3.17 ± 0.4
UCGGAGCAAUAUUACGUUUU | -3.91 ± 0.4 | 
UGCCAGCAAUAUUACGUGUC | -3.01 ± 0.19 | -1.04 ± 0.13
AUAGAGCAAUAUUACGCGUC | -1.8 ± 0.39 | -1.82 ± 0.26
UUCUAGCAAUAUUACGACGG | -1.31 ± 0.1 | -1.77 ± 0.15
GCUUAGCAAUAUUACGAACG | -0.817 ± 0.099 | 0.062 ± 0.14
UGGUAGCAAUAUUACGCUGG | -2.08 ± 0.2 | -2.52 ± 0.2
AACUAGCAAUAUUACGUUAC | -1.79 ± 0.13 | -1.96 ± 0.2
GUCGAGCAAUAUUACGUUGG | -1.9 ± 0.16 | -2.95 ± 0.47
GGAUAGCAAUAUUACGUCUC | -2.52 ± 0.25 | -2.16 ± 0.46
CUCUAGCAAUAUUACGCGAG | -3.63 ± 0.25 | -3.28 ± 0.37
CCGGAGCAAUAUUACGUUAC | -3.75 ± 0.2 | -1.67 ± 0.2
UCGCAGCAAUAUUACGACGG | -1.15 ± 0.069 | -0.0065 ± 0.1
AAGGAGCAAUAUUACGGAUC | -2.64 ± 0.36 | 
AAUCAGCAAUAUUACGGCCG | -0.87 ± 0.12 | 0.00722 ± 0.18
CACUAGCAAUAUUACGCGUG | -3.99 ± 0.21 | -3.12 ± 0.25

Sequence | self-splicing fitness (ln) (30 °C) | self-splicing fitness (ln) (37 °C)
UCCAAGCAAUAUUACGCUAU | -3.98 ± 0.47 | -2.26 ± 0.23
GUUGAGCAAUAUUACGAUUU | -1.2 ± 0.12 | -1.64 ± 0.16
AUAAAGCAAUAUUACGGUGG | -2.61 ± 0.1 | -1.4 ± 0.12
AAGGAGCAAUAUUACGGUGU | -3.44 ± 0.24 | -1.77 ± 0.19
GAUAAGCAAUAUUACGAGAU | -3.66 ± 0.21 | -2.14 ± 0.21
GCAUAGCAAUAUUACGCCAA | -4.09 ± 0.4 | -2.76 ± 0.35
AGACAGCAAUAUUACGCCCA | -0.00321 ± 0.2 | 0.432 ± 0.28
CCAGAGCAAUAUUACGGGGG | -3.72 ± 0.46 | -2.44 ± 0.31
AACUAGCAAUAUUACGGUUU | -3.29 ± 0.12 | -2.62 ± 0.17
UGCCAGCAAUAUUACGGCUU | -0.887 ± 0.098 | -0.247 ± 0.11
GUUGAGCAAUAUUACGUGAC | -2.31 ± 0.24 | -2.48 ± 0.31
AUUAAGCAAUAUUACGAAAU | -1.35 ± 0.13 | -1.44 ± 0.18
UCGUAGCAAUAUUACGCUUA |  | -1.1 ± 0.47
AAAGAGCAAUAUUACGCUAA |  | -1.52 ± 0.28
UUUGAGCAAUAUUACGCUCG | -3.8 ± 0.4 | -2.01 ± 0.34
UCAGAGCAAUAUUACGGCCC | -2.13 ± 0.39 | -0.0611 ± 0.34
CACUAGCAAUAUUACGUACG | -0.239 ± 0.071 | 0.494 ± 0.083
CCGCAGCAAUAUUACGGACA | -4.06 ± 0.46 | -2.57 ± 0.17
AGUGAGCAAUAUUACGACAU | -1.07 ± 0.014 | -0.531 ± 0.034
UGGAAGCAAUAUUACGUAUG | -1.96 ± 0.16 | -0.289 ± 0.14
AAAUAGCAAUAUUACGGCUG | -0.833 ± 0.15 | -0.0574 ± 0.18
GUCCAGCAAUAUUACGAACA | -1.83 ± 0.15 | -0.801 ± 0.12
UAAGAGCAAUAUUACGCAAG | -3.12 ± 0.44 | -1.51 ± 0.45
AUGUAGCAAUAUUACGACAC | -1.31 ± 0.14 | -0.0916 ± 0.2
GAGUAGCAAUAUUACGAUUG | -2.87 ± 0.25 | -2.14 ± 0.19
CCUCAGCAAUAUUACGCUAC | -1.66 ± 0.33 | 
